± gives the standard deviation.
Experiment: protein stability index of a GFP-peptide fusion (GPS, HEK-293T) (PSI 1-6); higher = more stable
[1] = treatment: DMSO, c terminus: a fixed tail appended
[2] = treatment: MLN4924 1 uM, 8 h, c terminus: a fixed tail appended
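Further: 24-mer peptide tiles fused after GFP, lentivirally expressed, FACS-sorted into six equal bins by GFP/DsRed ratio, decoded by Illumina sequencing, PSI is the read-weighted mean bin number.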

Row | Sequence | protein stability index [1] | protein stability index [2] | protein stability index (treatment: DMSO, c terminus: native) | protein stability index (treatment: MLN4924 1 uM, 8 h, c terminus: native)
1 | RELLEFTHMYLQSDDEMELEETEP [P3H4] | 4.98 ± 0.18 | 5.15 ± 0.22 | – | –
2 | ALRVLAEQNIIPSATNVTCYYQPA [TENT5C] | 2.31 ± 0.22 | 2.2 ± 0.089 | – | –
3 | VTKVTAVDADAGHNAWLSYSLLPQ [PCDHGC5] | 2.41 ± 0.39 | 2.29 ± 0.21 | – | –
4 | VLAIIAREGDCAPEEKIWEELSVL [MAGEA3] | 2.62 ± 0.48 | 2.42 ± 0.4 | – | –
5 | EEEEERWEWSPAGLQSYQQALLRI [SERTAD3] | 3.46 ± 0.29 | 3.43 ± 0.17 | – | –
6 | FAVGYIKISWSTWGEMTLSLFSLL [SLC19A2] | 3.18 ± 0.6 | 3.15 ± 0.34 | – | –
7 | LEIVGREGVSLTAVLTTHHHWDHA [HAGHL] | 2.59 ± 0.34 | 2.32 ± 0.44 | – | –
8 | SIRDANLYVSGLPKTMSQKEMEQL [ELAVL3] | 4.4 ± 0.061 | 4.27 ± 0.2 | – | –
9 | SSISSSARRTTRSEPIRRAGKSGT [MAP2] | 4.89 ± 0.26 | 5.09 ± 0.16 | – | –
10 | LIVGLQGMDLNLEAEALAGTGLVL [HDAC6] | 2.91 ± 0.48 | 2.6 ± 0.62 | – | –
11 | RSQHARKETEFLRLKRTRLGLDDF [STK38L] | 2.95 ± 0.28 | 3.04 ± 0.44 | – | –
12 | IFALYSSLKFKSRVPQTWSKRLYG [PLD5] | – | 2.83 ± 1.7 | – | –
13 | KGSFGKVCIVQKNDTKKMYAMKYM [STK32A] | 2.49 ± 0.41 | 2.41 ± 0.23 | – | –
14 | QGITMGCWDMYRHDIDCQWVDITD [LOXL2] | 2.4 ± 0.55 | 2.73 ± 0.42 | – | –
15 | QSRANGVKYPELVLEHSLDREEEA [PCDHGA10] | 5.29 ± 0.12 | 5.31 ± 0.15 | – | –
16 | IGSTSESKDWEEVVVESMEQDRIP [MIA2] | 5.08 ± 0.32 | 5.11 ± 0.26 | – | –
17 | DRYSEGIKHVLQTFGPIPEFSRAT [CRYL1] | 3.06 ± 0.58 | 3.36 ± 0.3 | – | –
18 | VSASRDKTLRVWDLKDDGNMMKVL [WSB1] | 3.2 ± 0.09 | 3.35 ± 0.25 | – | –
19 | ACTMDQARGLDDAAARGGQCPGLG [ZBED3] | 4.54 ± 0.18 | 4.51 ± 0.14 | – | –
20 | QLQVPTLRQQCAQVLRNNPDALSD [ELOA2] | 4.24 ± 0.36 | 4.42 ± 0.13 | – | –
21 | DYELEDETRPAKRITITESNMKSR [WEE1] | 4.74 ± 0.35 | 5.16 ± 0.29 | – | –
22 | KYIHRMMQIEFIKQGSMNFRFIPV [TRAF3IP2] | 3.659 ± 0.005 | 2.21 ± 1.1 | – | –
23 | TSASFGEESTPGQTNSETAVVALT [HDAC6] | 4.714 ± 0.027 | 5.05 ± 0.19 | – | –

Row | Sequence | protein stability index [1] | protein stability index [2] | protein stability index (treatment: DMSO, c terminus: native) | protein stability index (treatment: MLN4924 1 uM, 8 h, c terminus: native)
24 | PGGPCDSTLGGDIRESDPEQAPAP [TBX6] | 5.49 ± 0.16 | 5.44 ± 0.29 | – | –
25 | SPESGLEVRDRMLLKITIPNAFIG [DVL3] | 2.3 ± 0.15 | 2.24 ± 0.34 | – | –
26 | RPEITSRAINLLFDIARIERCNQL [ZER1] | 2.47 ± 0.55 | 2.35 ± 0.59 | – | –
27 | LEGKTFYSKKDRPLCKSHAFSHV [PDLIM7] | – | – | 3.36 ± 0.44 | 3.83 ± 0.75
28 | NHSLETCETTLFALRMATWNQILD [PTGFR] | 2.25 ± 0.52 | 2 ± 0.27 | – | –
29 | ENILSFMSYDEISQLRLVCKRMDL [FBXO28] | 2.32 ± 0.21 | 2.35 ± 0.28 | – | –
30 | PVYVSCIAQDTCTTTDHSSNPGPV [SPAG8] | 3.75 ± 0.39 | 3.9 ± 0.33 | – | –
31 | AQKLTIRLSSRYRYGQLIEINSHS [TRIP13] | 2.17 ± 0.55 | 2.01 ± 0.27 | – | –
32 | SLFARAMQVLVTAISPGRFPEALD [ANKRD9] | 3.04 ± 0.31 | 2.8 ± 0.54 | – | –
33 | ILVSVAAGVSLSTLEELLPPNTRV [PYCR3] | 2.77 ± 0.49 | 2.62 ± 0.54 | – | –
34 | HQQNKIKDLQKEQKTLQVKCQHYK [CEP70] | 4.11 ± 0.28 | 4.6 ± 0.21 | – | –
35 | KTSVEKANAQIQILTRSWEEVSTL [CD207] | 3.48 ± 0.14 | 3.77 ± 0.26 | – | –
36 | EEPELVFTLGDCDVIQALDLSVPL [FKBP8] | 3.66 ± 0.28 | 3.48 ± 0.41 | – | –
37 | CYKGHKEIAQYLLEKGADVNRKSV [FEM1C] | 3.1 ± 0.14 | 3.38 ± 0.18 | – | –
38 | MERSPDVSPGPSRSFKEELLCAVC [TRIM35] | 3.47 ± 0.18 | 3.6 ± 0.25 | – | –
39 | TEDELRVRHLEEENRGIVVLGINR [AUH] | 4.29 ± 0.15 | 4.33 ± 0.39 | – | –
40 | WRMLRPQLVNSSADNMLEYKSWLK [PPEF2] | 2.64 ± 0.49 | 2.7 ± 0.39 | – | –
41 | PGGDQGGPPVGPLSLGLATVDIQN [WAS] | 4.75 ± 0.22 | 4.71 ± 0.087 | – | –
42 | DVARQLGKNNEFSRLVAGEYLSFF [PSD2] | 2.26 ± 0.16 | 2.27 ± 0.44 | – | –
43 | HQQVEEALSFTLLGSAPLDQEPLL [NEK8] | 3.69 ± 0.25 | 3.75 ± 0.12 | – | –
44 | GGTSWTAYSLNKIHAYNLGTNAWE [KLHDC10] | 2.12 ± 0.34 | 2.08 ± 0.3 | – | –
45 | TRLAFELFAEEQAEGPNRLLYKDG [LPCAT4] | 3.85 ± 0.19 | 4.02 ± 0.2 | – | –
46 | VIVMTTRFEEGGRRKCGQYWPLEK [PTPN9] | 2.12 ± 0.75 | 2.47 ± 0.57 | – | –

Row | Sequence | protein stability index [1] | protein stability index [2] | protein stability index (treatment: DMSO, c terminus: native) | protein stability index (treatment: MLN4924 1 uM, 8 h, c terminus: native)
47 | EYDDDDSAASTSFQPQPVQPQQGY [ZNF207] | 5.32 ± 0.21 | 5.37 ± 0.26 | – | –
48 | SLGLSHSTDIGALMYPSYTFSGDV [MMP1] | 3.15 ± 0.4 | 3.19 ± 0.46 | – | –
49 | EEVDTGAVNLIESGACGAFVHGLE [INTS4] | 4.34 ± 0.39 | 4.85 ± 0.46 | – | –
50 | SISEKLSSTNFAMKRDVQEGQARC [C8orf76] | 4.41 ± 0.23 | 4.29 ± 0.22 | – | –
51 | LQDLQVTDILPQMITLSEAYIQIW [USP39] | 2.58 ± 0.54 | 2.55 ± 0.77 | – | –
52 | AVLGLYLLVFLILVGIFILAVSRP [SCARA5] | 3.3 ± 0.071 | 2.58 ± 0.63 | – | –
53 | QYFTNRLDMSQNVSLVTAELSKDA [SLC29A1] | 4.2 ± 0.21 | 4.25 ± 0.24 | – | –
54 | EFLRVQEERILHQQVKCIITEEKV [VPS39] | 3.08 ± 0.26 | 2.92 ± 0.3 | – | –
55 | TKLLNDEDQVVVNKAAVMVHQLSK [CTNNB1] | 3.6 ± 0.19 | 3.57 ± 0.4 | – | –
56 | QAIQMRLVDVACKHLTDTSHGVRN [INTS4] | 2.52 ± 0.4 | 2.52 ± 0.23 | – | –
57 | PNCLSMGSRCLKTFEVPEENTAET [ZBED1] | 4.89 ± 0.39 | 4.93 ± 0.15 | – | –
58 | LSEDDKLQGAASHVPEGFDPTGPA [EHMT1] | 5.333 ± 0.053 | 5.4 ± 0.073 | – | –
59 | EDSVFEERPERRSGPPASYCAKLC [C8orf76] | 4.44 ± 0.29 | 4.6 ± 0.07 | – | –
60 | IWKLNLQTFQWVKLPATMPEPVYF [KLHDC10] | 2.82 ± 0.7 | 2.63 ± 0.33 | – | –
61 | AQSRLEDPGADSEKSTVVEGGEVR [DLX1] | 5.42 ± 0.28 | 5.45 ± 0.37 | – | –
62 | MDAAPGVDLSRILNEMRDQYEKMA [KRT17] | 3.82 ± 0.18 | 3.8 ± 0.17 | – | –
63 | VAQCLRDLVAMQWADAAGEAVPEG [ZSWIM9] | 2.92 ± 0.33 | 3.06 ± 0.36 | – | –
64 | ELPLLTPCSKAVMSQALKATFSGF [ETS2] | 2.62 ± 0.28 | 2.06 ± 0.65 | – | –
65 | FRDEKDYPASTSQDSFEAAGNSTS [KCNA3] | 5.55 ± 0.25 | 5.47 ± 0.077 | – | –
66 | SVVCRELGFGSAKEAVTGSRLGQG [LOXL2] | 3.69 ± 0.41 | 4.12 ± 0.44 | – | –
67 | SDLLSEFKKHDADKVGLITLSDWA [PPEF2] | 3.35 ± 0.47 | 3.44 ± 0.27 | – | –
68 | DSFLVALDMDDGTLSFIVDGQYMG [SPSB1] | 2.64 ± 0.63 | 2.74 ± 0.41 | – | –
69 | VGHNHTYNMAPSALDSADLPPPSA [NFE2L1] | 4.61 ± 0.16 | 4.43 ± 0.36 | – | –

Row | Sequence | protein stability index [1] | protein stability index [2] | protein stability index (treatment: DMSO, c terminus: native) | protein stability index (treatment: MLN4924 1 uM, 8 h, c terminus: native)
70 | TVAIGAESEVYSWGKGARGRLGRR [NEK8] | 4.08 ± 0.16 | 4.14 ± 0.15 | – | –
71 | SDTIPYLKKFLYNFDNPWNFQNIP [MIA2] | 2.28 ± 0.84 | 2.5 ± 0.59 | – | –
72 | GCSSSGSCSQGSGILHYAHGDSQQ [CRY1] | 3.75 ± 0.41 | 3.67 ± 0.075 | – | –
73 | VSLLENNIYVHDLLTFQQITTVSK [VPS39] | 2.97 ± 0.35 | 2.41 ± 0.49 | – | –
74 | TTIKRKREDDKLVVECVMKGVTST [FABP4] | 3.9 ± 0.52 | 3.9 ± 0.19 | – | –
75 | NPPSDFSFQNMNSKRKAETWKKNR [STK38L] | 4.65 ± 0.45 | 4.42 ± 0.22 | – | –
76 | QSTVKCLTVLQRLDVWLSGGNDLC [WDR41] | 2.6 ± 0.63 | 2.32 ± 0.4 | – | –
77 | SAVAMYMLYEKQKQQNVAHCMLVS [ZBED1] | 2.92 ± 0.54 | 2.74 ± 0.53 | – | –
78 | FLANLHITALLNVSRRTSEACMTH [DUSP5] | 3.13 ± 0.42 | 3.48 ± 0.7 | – | –
79 | PISVHCSAGVGRTGVFITLSIVLE [PTPRD] | 2.96 ± 0.26 | 2.6 ± 0.21 | – | –
80 | GGEYQEPGGNVKGVWAPPAPGFGE [BEX5] | 4.05 ± 0.53 | 4.38 ± 0.31 | – | –
81 | KAILKNISVLAFSVCFIFTITIGM [SLC29A1] | 3.19 ± 0.29 | 2.96 ± 0.44 | – | –
82 | FGNRIKRVKLISNKGTETDNDPSC [PHTF1] | 4.06 ± 0.29 | 4.05 ± 0.42 | – | –
83 | TVMMWPLAVYHRLWDRAYVRLKPA [RETREG3] | 2.34 ± 0.23 | 2.27 ± 0.15 | – | –
84 | RRNSSSSMSSRLSIYDNVPGSILY [DLC1] | 2.75 ± 0.2 | 2.87 ± 0.45 | – | –
85 | FVVLAFLTGVLCSYPNPNEDKCPG [TMEM192] | 2.92 ± 0.52 | 3.22 ± 0.46 | – | –
86 | ADTGRIHRFVEKPQVFVSNKINAG [GMPPB] | 3.46 ± 0.32 | 3.84 ± 0.18 | – | –
87 | KVVECLDHARGKSQVALKIIRNVG [CLK3] | 2.24 ± 0.21 | 2.22 ± 0.36 | – | –
88 | PRKRRRNGNEEDNHLPPQTKRSSR [FAM104A] | 5.34 ± 0.16 | 5.36 ± 0.16 | – | –
89 | NQLVGPESIAHIGDVMFTGTADGR [APMAP] | 4.77 ± 0.31 | 4.69 ± 0.08 | – | –

From the supplement of paper PMC10567573
